# According to patent US20240207463A1, “RADIOACTIVE COMPLEX OF ANTI-EGFR ANTIBODY, AND RADIOPHARMACEUTICAL” (NIHON MEDI-PHYSICS CO., LTD., priority 2021, published 2024):
# Legend:
# [1] = Hepatotoxicity and nephrotoxicity markers (AST, ALT, BUN) in COLO205 tumor-bearing mice; conditions: final day of observation
# Protocol: As a comparison group, a group (oxaliplatin administration group) was set by administering 33 μL of oxaliplatin into the tail vein at a dose of 5 mg/mL 3 times every other week. […] Each group contained 6 mice, and observation of general condition and measurement of the body weight and tumor volume were performed until the end of the observation period. In the Figure, the vertical axis indicates mean tumor volume of each group, and the horizontal axis indicates the number of days elapsed since administration of each medicament. […] On the final day of observation, the mice were autopsied, and the blood was collected. The collected blood was analyzed by a dry chemistry analyzer (SPOTCHEM D-02, manufactured by ARKRAY, Inc.) by measuring aspartate aminotransferase (AST), alanine aminotransferase (ALT), and blood urea nitrogen (BUN) in plasma by using SPOTCHEM D Total-A2 (manufactured by ARKRAY, Inc.), and hepatotoxicity and nephrotoxicity were evaluated.
# [2] = test system: tumor derived from COLO205 cells; assay: Accumulation in tumor, PET imaging in COLO205 tumor-bearing mice; assay type: in vivo, mouse
# Protocol: COLO205 cells of EGFR high expression human colorectal cancer-derived cell line purchased from ATCC were suspended in DMEM medium and administered subcutaneously to the flanks of 5-week-old female BALB/c nu/nu (Charles River Laboratories Japan, Inc.) at 5×10^6 cells to prepare tumor-bearing mice. The tumor volume was allowed to grow to about 100 to 250 mm^3, and the radioconjugate produced as described in Example 7 was administered at a dose of about 6 MBq/mouse (each n=3) into the tail vein. After 72 hr and 120 hr from the administration, images were taken using a small animal PET imaging device under conditions similar to those in Evaluation 2.
# The arrow in the image indicates a tumor derived from COLO205 cells used for tumor-bearing. When VOI was set for the tumor and muscle (femoral muscle) in each imaged mouse and the SUV (Standard Uptake Value) was calculated, the value was 3.18±0.72 for tumor and 0.48±0.02 for muscle at 72 hr after administration and 4.38±0.96 for tumor and 0.48±0.05 for muscle at 120 hr after administration. Using the values, the radioactivity accumulation ratio of tumor to muscle was calculated. As a result, the ratio was 6.67±1.52 at 72 hr after administration and 9.19±2.02 at 120 hr after administration, and a higher level of radioactivity was accumulated in the tumor as compared with other organs and EGFR positive tumor could be depicted.
# [3] = test system: SW48 cells and COLO205 cells; assay: Apoptosis induction, Caspase-Glo 3/7 Assay; assay type: cell-based, human; conditions: 72 hours, both cells
# Protocol: In addition, unlabeled panitumumab was added to an antibody concentration the same as that of the group at each radioactivity concentration, and the cells were cultured. After 72 hours from the sample addition, an apoptosis assay kit (Caspase-Glo (registered trademark) 3/7 Assay, manufactured by Promega) was added, and Caspase-3/7 activity was detected using a microplate reader.
# [4] = test system: COLO205 cells, HCT-116 cells, SW48 cells, MIAPaCa-2 cells, NCI-H358 cells; assay: Cytotoxic effect on cultured cells, overall statement; assay type: cell-based, human; conditions: 120 hours; up to maximum concentration added (antibody concentration 156 nM)
# Protocol: In addition, unlabeled panitumumab was added to an antibody concentration the same as that of the sample at each radioactivity concentration, and the cells were cultured. After 120 hours from the sample addition, CellTiter-Glo (registered trademark) 2.0 Cell Viability Assay (manufactured by Promega) was added to the medium, chemiluminescence was detected using a microplate reader (SpectraMax i3x, manufactured by Molecular Devices, LLC), and the number of viable cells was calculated. The ratio of the number of viable cells under conditions where no antibody was added to the calculated number of viable cells was taken, and the cytotoxic effect was evaluated. Furthermore, the obtained results were fitted by a […] regression method using GraphPad Prism 7 (manufactured by GraphPad Software), and EC50 was calculated.
molecule,measurement,setting,value
"O=C1[O][Pt]2([NH][C@@H]3CCCC[C@H]3[NH]2)[O]C1=O [oxaliplatin, reference compound]","hepatotoxicity and nephrotoxicity (AST, ALT, BUN in plasma)",[1],no hepatotoxicity or nephrotoxicity was confirmed
Example 7: Complex with panitumumab using 89Zr-labeled DOTAGA-DBCO,"SUV (Standard Uptake Value), muscle (femoral muscle)",[2]; 72 hr after administration,0.48±0.02
same,"SUV (Standard Uptake Value), muscle (femoral muscle)",[2]; 120 hr after administration,0.48±0.05
same,"SUV (Standard Uptake Value), tumor",[2]; 120 hr after administration,4.38±0.96
same,"SUV (Standard Uptake Value), tumor","[2]; about 6 MBq/mouse tail vein, 72 hr after administration",3.18±0.72
"panitumumab [unlabeled panitumumab, reference compound]",apoptosis induction (Caspase-3/7 activity),[3],apoptosis induction was not confirmed
same,cytotoxic effect,[4],no cytotoxic effect was confirmed
